Data taken from patent US11504441B2, “Radiolabeled compounds targeting the prostate-specific membrane antigen” (PROVINCIAL HEALTH SERVICES AUTHORITY, priority 2019, dated 2022).

Assay: in vivo
Parameters: species or system mice
Conditions: male, NODSCID 1L2RγKO, mouse, iv, total radioactivity

## COc1ccc(CCCC(=O)NCC(=O)N[C@@H](CCCCNC(=O)CN2CCN(CC(=O)O)CCN(CC(=O)O)CCN(CC(=O)O)CC2)C(=O)NC[C@H]2CC[C@H](C(=O)N[C@@H](Cc3c4ccccc4cc4ccccc34)C(=O)NCCCC[C@H](NC(=O)N[C@@H](COCC(=O)O)C(=O)O)C(=O)O)CC2)cc1 [177Lu-HTK04028, metal not drawn]
Adrenal glands uptake
  tissue uptake at 1 h: 3.25 ± 0.34 %ID/g
  tissue uptake at 4 h: 2.18 ± 0.33 %ID/g
  tissue uptake at 24 h: 0.73 ± 0.13 %ID/g
  tissue uptake at 72 h: 0.48 ± 0.17 %ID/g
  tissue uptake at 120 h: 0.33 ± 0.05 %ID/g
Blood uptake
  tissue uptake at 1 h: 17.7 ± 2.1 %ID/g
  tissue uptake at 4 h: 12.2 ± 1.66 %ID/g
  tissue uptake at 24 h: 0.82 ± 0.11 %ID/g
  tissue uptake at 72 h: 0.05 ± 0.01 %ID/g
  tissue uptake at 120 h: 0.02 %ID/g
Bone uptake
  tissue uptake at 1 h: 0.99 ± 0.21 %ID/g
  tissue uptake at 4 h: 0.63 ± 0.1 %ID/g
  tissue uptake at 24 h: 0.11 ± 0.02 %ID/g
  tissue uptake at 72 h: 0.05 ± 0.02 %ID/g
  tissue uptake at 120 h: 0.04 ± 0.02 %ID/g
Brain uptake
  tissue uptake at 1 h: 0.26 ± 0.03 %ID/g
  tissue uptake at 4 h: 0.19 ± 0.02 %ID/g
  tissue uptake at 24 h: 0.02 %ID/g
  tissue uptake at 72 h: 0.01 %ID/g
Fat uptake
  tissue uptake at 1 h: 1.26 ± 0.21 %ID/g
  tissue uptake at 4 h: 0.89 ± 0.24 %ID/g
  tissue uptake at 24 h: 0.14 ± 0.02 %ID/g
  tissue uptake at 72 h: 0.06 ± 0.02 %ID/g
  tissue uptake at 120 h: 0.03 ± 0.01 %ID/g
Heart uptake
  tissue uptake at 1 h: 4.15 ± 0.31 %ID/g
  tissue uptake at 4 h: 2.67 ± 0.31 %ID/g
  tissue uptake at 24 h: 0.36 ± 0.03 %ID/g
  tissue uptake at 72 h: 0.12 ± 0.03 %ID/g
  tissue uptake at 120 h: 0.07 ± 0.01 %ID/g
Intestine uptake
  tissue uptake at 1 h: 1.23 ± 0.24 %ID/g
  tissue uptake at 4 h: 1.04 ± 0.12 %ID/g
  tissue uptake at 24 h: 0.23 ± 0.05 %ID/g
  tissue uptake at 72 h: 0.07 ± 0.03 %ID/g
  tissue uptake at 120 h: 0.08 ± 0.05 %ID/g
Kidneys uptake
  tissue uptake at 1 h: 8.3 ± 1.58 %ID/g
  tissue uptake at 4 h: 9.21 ± 2.76 %ID/g
  tissue uptake at 24 h: 4.32 ± 0.58 %ID/g
  tissue uptake at 72 h: 1.77 ± 0.25 %ID/g
  tissue uptake at 120 h: 1.16 ± 0.13 %ID/g
Lacrimal uptake
  tissue uptake at 1 h: 0.51 ± 0.23 %ID/g
  tissue uptake at 4 h: 0.39 ± 0.19 %ID/g
  tissue uptake at 24 h: 0.05 ± 0.04 %ID/g
  tissue uptake at 72 h: 0.01 ± 0.01 %ID/g
Liver uptake
  tissue uptake at 1 h: 2.93 ± 0.51 %ID/g
  tissue uptake at 4 h: 2.29 ± 0.55 %ID/g
  tissue uptake at 24 h: 0.54 ± 0.09 %ID/g
  tissue uptake at 72 h: 0.22 ± 0.02 %ID/g
  tissue uptake at 120 h: 0.31 ± 0.3 %ID/g
Lungs uptake
  tissue uptake at 1 h: 7.88 ± 1.77 %ID/g
  tissue uptake at 4 h: 5.79 ± 0.44 %ID/g
  tissue uptake at 24 h: 1.08 ± 0.72 %ID/g
  tissue uptake at 72 h: 0.18 ± 0.02 %ID/g
  tissue uptake at 120 h: 0.09 ± 0.01 %ID/g
Muscle uptake
  tissue uptake at 1 h: 1.32 ± 0.19 %ID/g
  tissue uptake at 4 h: 0.83 ± 0.09 %ID/g
  tissue uptake at 24 h: 0.11 ± 0.02 %ID/g
  tissue uptake at 72 h: 0.03 ± 0.01 %ID/g
  tissue uptake at 120 h: 0.02 %ID/g
Pancreas uptake
  tissue uptake at 1 h: 1.53 ± 0.22 %ID/g
  tissue uptake at 4 h: 1.24 ± 0.04 %ID/g
  tissue uptake at 24 h: 0.15 ± 0.02 %ID/g
  tissue uptake at 72 h: 0.05 ± 0.01 %ID/g
  tissue uptake at 120 h: 0.03 %ID/g
Salivary uptake
  tissue uptake at 1 h: 2.55 ± 0.21 %ID/g
  tissue uptake at 4 h: 1.75 ± 0.25 %ID/g
  tissue uptake at 24 h: 0.45 ± 0.1 %ID/g
  tissue uptake at 72 h: 0.19 ± 0.05 %ID/g
  tissue uptake at 120 h: 0.11 ± 0.03 %ID/g
Seminal uptake
  tissue uptake at 1 h: 1.53 ± 0.97 %ID/g
  tissue uptake at 4 h: 0.9 ± 0.2 %ID/g
  tissue uptake at 24 h: 0.12 ± 0.02 %ID/g
  tissue uptake at 72 h: 0.05 ± 0.01 %ID/g
  tissue uptake at 120 h: 0.05 ± 0.03 %ID/g
Spleen uptake
  tissue uptake at 1 h: 1.53 ± 0.23 %ID/g
  tissue uptake at 4 h: 1.44 ± 0.31 %ID/g
  tissue uptake at 24 h: 0.48 ± 0.14 %ID/g
  tissue uptake at 72 h: 0.49 ± 0.16 %ID/g
  tissue uptake at 120 h: 0.69 ± 0.36 %ID/g
Stomach uptake
  tissue uptake at 1 h: 0.51 ± 0.18 %ID/g
  tissue uptake at 4 h: 0.45 ± 0.06 %ID/g
  tissue uptake at 24 h: 0.31 ± 0.1 %ID/g
  tissue uptake at 72 h: 0.07 ± 0.07 %ID/g
  tissue uptake at 120 h: 0.1 ± 0.1 %ID/g
Tail uptake
  tissue uptake at 1 h: 4.85 ± 1.59 %ID/g
  tissue uptake at 4 h: 2.21 ± 0.18 %ID/g
  tissue uptake at 24 h: 0.31 ± 0.1 %ID/g
  tissue uptake at 72 h: 0.15 ± 0.04 %ID/g
  tissue uptake at 120 h: 0.1 ± 0.03 %ID/g
Testes uptake
  tissue uptake at 1 h: 2.26 ± 0.46 %ID/g
  tissue uptake at 4 h: 2.66 ± 0.41 %ID/g
  tissue uptake at 24 h: 0.55 ± 0.05 %ID/g
  tissue uptake at 72 h: 0.31 ± 0.05 %ID/g
  tissue uptake at 120 h: 0.22 ± 0.01 %ID/g
Thyroid uptake
  tissue uptake at 1 h: 3.3 ± 0.42 %ID/g
  tissue uptake at 4 h: 2.3 ± 0.3 %ID/g
  tissue uptake at 24 h: 0.52 ± 0.08 %ID/g
  tissue uptake at 72 h: 0.24 ± 0.04 %ID/g
  tissue uptake at 120 h: 0.13 ± 0.02 %ID/g
Tumor uptake
  tissue uptake at 1 h: 19 ± 5.86 %ID/g
  tissue uptake at 4 h: 42.6 ± 11.6 %ID/g
  tissue uptake at 24 h: 30.2 ± 2.74 %ID/g
  tissue uptake at 72 h: 26.1 ± 7.29 %ID/g
  tissue uptake at 120 h: 28.4 ± 5.11 %ID/g
